According to doi:10.1101/2020.09.18.291195 (bioRxiv, 2020):
One block for each molecule: values may come before it.

Tests used:
[1] = target: human LI-cadherin EC1-5 (human); experiment: AUC
AUC = target: the molecule itself; experiment: AUC

Kd [1]: 22.8 µM
stoichiometry N [1]: 2
Molecule: human LI-cadherin EC1-5 (domain or fragment)

B1: human LI-cadherin EC1-4 (domain or fragment)
chain: QEGKFSGPLKPMTFSIYEGQEPSQIIFQFKANPPAVTFELTGETDNIFVIEREGLLYYNRALDRETRSTHNLQVAALDANGIIVEGPVPITIKVKDINDNRPTFLQSKYEGSVRQNSRPGKPFLYVNATDLDDPATPNGQLYYQIVIQLPMINNVMYFQINNKTGAISLTREGSQELNPAKNPSYNLVISVKDMGGQSENSFSDTTSVDIIVTENIWKAPKPVEMVENSTDPHPIKITQVRWNDPGAQYSLVDKEKLPRFPFSIDQEGDIYVTQPLDREEKDAYVFYAVAKDEYGKPLSYPLEIHVKVKDINDNPPTCPSPVTVFEVQENERLGNSIGTLTAHDRDEENTANSFLNYRIVEQTPKLPMDGLFLIQTYAGMLQLAKQSLKKQDTPQYNLTIEVSDKDFKTLCFVQINVID
modifications: N-glycans (four partial N-glycans modelled in chain A and two in chain B of the crystal structure)
Kd (AUC): 39.8 µM
stoichiometry N (AUC): 2

B2: human LI-cadherin EC1-2 (domain or fragment)
chain: GPLKPMTFSIYEGQEPSQIIFQFKANPPAVTFELTGETDNIFVIEREGLLYYNRALDRETRSTHNLQVAALDANGIIVEGPVPITIKVKDINDNRPTFLQSKYEGSVRQNSRPGKPFLYVNATDLDDPATPNGQLYYQIVIQLPMINNVMYFQINNKTGAISLTREGSQELNPAKNPSYNLVISVKDMGGQSENSFSDTTSVDIIVTE
Kd (AUC): 75 µM
stoichiometry N (AUC): 2
